The source of these data is patent publication US20040014187A1, “Bacterial carboxypeptidase cpg2 variants and their use in gene directed enzyme prodrug therapy” (priority 2000, published 2004).

“Also recorded” adds a separate entry of the source. Where two headings read alike, the source gives them in different places.

The nature of data set [1]: CPG2 dimer stability by non-reducing SDS-polyacrylamide gel electrophoresis of COS cell extracts. The settings on record: sample not heated.
Excerpt: To test this, CPG2* was transiently expressed in COS cells and the stability of the dimers determined by non-reducing SDS-polyacrylamide gels.
Data set [2] can be described thus: Enzyme kinetic studies of CPG2-derived enzymes in detergent soluble cell extracts, MTX as substrate. The class given is biochemical. The settings on record: for Catalytic activity (%): specific activity of COS/CPG2* (50 ng CPG2*) assigned as 100%. The text has this:
Detergent soluble cell extracts, and enzyme kinetic analyses have been described previously (Marais et al (1996) Cancer Res. 56, 4735-4742; Marais et al (1997) Nature Biotech. 15, 1373-1377).

[3] abbreviates: substrate MTX, detergent soluble cell extract, read-out: Km (μM MTX).

B1: stCPG2(QTQ): surface tethered CPG2, Q222, T264, Q272 (protein)
chain: ALAQKRDNVLFQAATDEQPAVIKTLEKLVNIETGTGDAEGIAAAGNFLEAELKNLGFTVTRSKSAGLVVGDNIVGKIKGRGGKNLLLMSHMDTVYLKGILAKAPFRVEGDKAYGPGIADDKGGNAVILHTLKLLKEYGVRDYGTITVLFNTDEEKGSFGSRDLIQEEAKLADYVLSFEPTSAGDEKLSLGTSGIAYVQVQITGKASHAGAAPELGVNALVEASDLVLRTMNIDDKAKNLRFTWTIAKAGQVSNIIPASATLNADVRYARNEDFDAAMKTLEERAQQKKLPEADVKVIVTRGRPAFNAGEGGKKLVDKAVAYYKEAGGTLGVEERTGGGTDAAYAALSGKPVIESLGLPGFGYHSDKAEYVDISAIPRRLYMAARLIMDLGAGKDLDDKGCPAEQRASPLTSIISAVVGILLVVVLGVVFGILIKRRQQKIRKYT
As for B1, the dimer stability entry in data set [1] is “did nor form stable dimers”. In addition, the “Catalytic activity (%)” value in data set [2] is reported as 29%. Further, the Km (as a rule, the substrate concentration at which the rate is half of its maximum) in data set [2] (setting [3]) worked out at 45 µM.

B2: CPG2*(QTQ): cytosolic CPG2*(Q)3 with the glutamine at position 264 substituted with threonine (protein)
chain: ALAQKRDNVLFQAATDEQPAVIKTLEKLVNIETGTGDAEGIAAAGNFLEAELKNLGFTVTRSKSAGLVVGDNIVGKIKGRGGKNLLLMSHMDTVYLKGILAKAPFRVEGDKAYGPGIADDKGGNAVILHTLKLLKEYGVRDYGTITVLFNTDEEKGSFGSRDLIQEEAKLADYVLSFEPTSAGDEKLSLGTSGIAYVQVQITGKASHAGAAPELGVNALVEASDLVLRTMNIDDKAKNLRFTWTIAKAGQVSNIIPASATLNADVRYARNEDFDAAMKTLEERAQQKKLPEADVKVIVTRGRPAFNAGEGGKKLVDKAVAYYKEAGGTLGVEERTGGGTDAAYAALSGKPVIESLGLPGFGYHSDKAEYVDISAIPRRLYMAARLIMDLGAGK
Turning to B2, the dimer stability entry in data set [1] is listed as “did not restore dimer stability; also recorded: not improved”. In data set [2] (increase relative to CPG2*(Q)3), the “catalytic activity compared to CPG2*(Q)3” value is recorded as around 2.5 fold. For the same molecule, the “increase in Km (decrease in apparent affinity for MTX) compared to CPG2*(Q)3” value in data set [2] (relative to CPG2*(Q)3) is around 12 fold. For the same molecule, the “Catalytic activity (%)” value in data set [2] turned out to be 78%. Further, in data set [2] (setting [3]), the Km turned out to be 125 µM.

B3: CPG2*(N272): cytosolic CPG2* with N to L substitution at position 272 (protein)
chain: ALAQKRDNVLFQAATDEQPAVIKTLEKLVNIETGTGDAEGIAAAGNFLEAELKNLGFTVTRSKSAGLVVGDNIVGKIKGRGGKNLLLMSHMDTVYLKGILAKAPFRVEGDKAYGPGIADDKGGNAVILHTLKLLKEYGVRDYGTITVLFNTDEEKGSFGSRDLIQEEAKLADYVLSFEPTSAGDEKLSLGTSGIAYVQVNITGKASHAGAAPELGVNALVEASDLVLRTMNIDDKAKNLRFNWTIAKAGLVSNIIPASATLNADVRYARNEDFDAAMKTLEERAQQKKLPEADVKVIVTRGRPAFNAGEGGKKLVDKAVAYYKEAGGTLGVEERTGGGTDAAYAALSGKPVIESLGLPGFGYHSDKAEYVDISAIPRRLYMAARLIMDLGAGK
Regarding B3, in data set [1], the dimer stability entry was “formed stable dimers”.

B4: CPG2*(N264L): cytosolic CPG2* with N to L substitution at position 264 (protein)
chain: ALAQKRDNVLFQAATDEQPAVIKTLEKLVNIETGTGDAEGIAAAGNFLEAELKNLGFTVTRSKSAGLVVGDNIVGKIKGRGGKNLLLMSHMDTVYLKGILAKAPFRVEGDKAYGPGIADDKGGNAVILHTLKLLKEYGVRDYGTITVLFNTDEEKGSFGSRDLIQEEAKLADYVLSFEPTSAGDEKLSLGTSGIAYVQVNITGKASHAGAAPELGVNALVEASDLVLRTMNIDDKAKNLRFLWTIAKAGNVSNIIPASATLNADVRYARNEDFDAAMKTLEERAQQKKLPEADVKVIVTRGRPAFNAGEGGKKLVDKAVAYYKEAGGTLGVEERTGGGTDAAYAALSGKPVIESLGLPGFGYHSDKAEYVDISAIPRRLYMAARLIMDLGAGK
For the molecule B4, in data set [1], the dimer stability result is given as “migrated as a monomer”.

B5: COS/stCPG2 (Q, NWV, Q): CPG2 with T266 altered to V266 in the context of Q222 and Q272 (protein, UniProt P06621 23-415, looked up, variant N222Q T266V N272Q)
Carboxypeptidase G2: ALAQKRDNVLFQAATDEQPAVIKTLEKLVNIETGTGDAEGIAAAGNFLEAELKNLGFTVTRSKSAGLVVGDNIVGKIKGRGGKNLLLMSHMDTVYLKGILAKAPFRVEGDKAYGPGIADDKGGNAVILHTLKLLKEYGVRDYGTITVLFNTDEEKGSFGSRDLIQEEAKLADYVLSFEPTSAGDEKLSLGTSGIAYVQVQITGKASHAGAAPELGVNALVEASDLVLRTMNIDDKAKNLRFNWVIAKAGQVSNIIPASATLNADVRYARNEDFDAAMKTLEERAQQKKLPEADVKVIVTRGRPAFNAGEGGKKLVDKAVAYYKEAGGTLGVEERTGGGTDAAYAALSGKPVIESLGLPGFGYHSDKAEYVDISAIPRRLYMAARLIMDLGAGK
modifications: surface tethered
notes: CPG2 with T266 altered to V266 in the context of Q222 and Q272
As to B5, the “Catalytic activity (%)” value in data set [2] was 55%. Moreover, the Michaelis constant (Km) in data set [2] (setting [3]) turned out to be 90 µM; in data set [2] (unit μm [sic], read-out: Km) it was 90 µM.

B6: CPG2*(QAQ): cytosolic CPG2*(Q)3 with the glutamine at position 264 substituted with alanine (protein)
chain: ALAQKRDNVLFQAATDEQPAVIKTLEKLVNIETGTGDAEGIAAAGNFLEAELKNLGFTVTRSKSAGLVVGDNIVGKIKGRGGKNLLLMSHMDTVYLKGILAKAPFRVEGDKAYGPGIADDKGGNAVILHTLKLLKEYGVRDYGTITVLFNTDEEKGSFGSRDLIQEEAKLADYVLSFEPTSAGDEKLSLGTSGIAYVQVQITGKASHAGAAPELGVNALVEASDLVLRTMNIDDKAKNLRFAWTIAKAGQVSNIIPASATLNADVRYARNEDFDAAMKTLEERAQQKKLPEADVKVIVTRGRPAFNAGEGGKKLVDKAVAYYKEAGGTLGVEERTGGGTDAAYAALSGKPVIESLGLPGFGYHSDKAEYVDISAIPRRLYMAARLIMDLGAGK
Turning to B6, in data set [1], the dimer stability entry was “did not restore dimer stability; also recorded: not improved”. Moreover, the entries for the “Catalytic activity (%)” value in data set [2] and in data set [2] (listed as COS/CPG2* (QAQ)) were “essentially inactive” and “Very low”, respectively.

B7: CPG2*(Q)3: cytosolic CPG2* bearing three asparagine to glutamine mutations (N222, N264, N272) (protein)
chain: ALAQKRDNVLFQAATDEQPAVIKTLEKLVNIETGTGDAEGIAAAGNFLEAELKNLGFTVTRSKSAGLVVGDNIVGKIKGRGGKNLLLMSHMDTVYLKGILAKAPFRVEGDKAYGPGIADDKGGNAVILHTLKLLKEYGVRDYGTITVLFNTDEEKGSFGSRDLIQEEAKLADYVLSFEPTSAGDEKLSLGTSGIAYVQVQITGKASHAGAAPELGVNALVEASDLVLRTMNIDDKAKNLRFQWTIAKAGQVSNIIPASATLNADVRYARNEDFDAAMKTLEERAQQKKLPEADVKVIVTRGRPAFNAGEGGKKLVDKAVAYYKEAGGTLGVEERTGGGTDAAYAALSGKPVIESLGLPGFGYHSDKAEYVDISAIPRRLYMAARLIMDLGAGK
For B7, the dimer stability entry in data set [1] is on record as “unstable”.
